Assay results as given in patent US20250297004A1, “NECTIN-4 BINDING AGENTS” (INNATE PHARMA, priority 2022, published 2025).
Positions count from the first letter of the chain named.

B1: N41 (antibody, V domains shown)
VH: QVQLKQSGPGLVQPSQSLSITCTVSGFSLTNYGVHWVRQSPGKGLEWLGVIWSGGSTDYNAAFISRLSISKDTSKSQVFFKMNSLQADDTAIYYCARELIHAMDNWGQGTSVTVSS
VL: DIQMTQSPASLSVSVGETVTITCRASENIYSNLAWYQQKQGNSPQLLVFAATNLADGVPSRFSGSGSGTQYSLKINSLQSEDFGTYYCQHFWGTPTFGGGTKLEIK
B2: 5E7 (antibody, V domains shown)
VH: QVQLQQPGAELVKPGASVKLSCKASGYIFTSYWMHWVKQRPGQGLEWIGEIDPSDSYTNYNQKFKGKATLTLDKSSSTTYMQLSSLTSEDSAVYYCVRGYGNYGDYWGQGTTLTVSSASTKGP
VL: DVVMTQAAFSNPVTLGTSASISCRSSKSLLHSNGITYLYWYLQKPGQSPQLLIYQMSNLASGVPDRFSSSGSGTDFTLRISRVEAEDVGVYYCAQNLELPWTFGGGTKLEIKRTVAAP

Tests used:
Test in all cases: Epitope mapping using Nectin-4 point mutants
Assay type in all cases: binding
[1] = biological target: T1, human Nectin-4 Mutant 7bis (A72P/G73N/K197T/S199A) (Homo sapiens, UniProt Q96NY8, A72P/G73N/K197T/S199A)
T1 construct: expressed in transfected cells; host or cells: HEK293T
T1 sequence (Q96NY8 32-510 A72P/G73N/K197T/S199A): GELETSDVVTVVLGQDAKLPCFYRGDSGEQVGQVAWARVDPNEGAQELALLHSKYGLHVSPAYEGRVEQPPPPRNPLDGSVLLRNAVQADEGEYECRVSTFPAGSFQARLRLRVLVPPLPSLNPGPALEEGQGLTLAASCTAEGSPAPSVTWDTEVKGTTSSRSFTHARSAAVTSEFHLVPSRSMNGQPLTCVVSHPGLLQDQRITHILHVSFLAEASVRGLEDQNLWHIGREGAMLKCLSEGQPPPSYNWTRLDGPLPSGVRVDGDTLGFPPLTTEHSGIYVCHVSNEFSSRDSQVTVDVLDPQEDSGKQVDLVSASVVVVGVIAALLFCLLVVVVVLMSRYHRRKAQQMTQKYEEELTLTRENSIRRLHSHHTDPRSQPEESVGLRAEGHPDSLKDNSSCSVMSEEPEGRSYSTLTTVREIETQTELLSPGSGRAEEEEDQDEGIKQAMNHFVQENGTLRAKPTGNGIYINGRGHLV
From the text: (§1) Combined with the published structures of the Nectin-4 domains, Nectin-4 mutations at surface exposed amino acids residues were designed. Nectin-4 domain structure was modelled based on Protein Data Bank reference: 4FRW (domains V et C1). Human Nectin-4 used was NCBI Reference Sequence: NP_112178.2, mouse Nectin-4 used was NCBI Reference Sequence: AAL79833.1, cynomolgus Nectin-4 used was NCBI Reference Sequence: XP_005541277.1, rat Nectin-4 used was NCBI Reference Sequence: NP_001102546.1. The cells expressing the Nectin-4 mutants are then be used for testing anti-Nectin-4 antibodies for loss of binding to different Nectin-4 mutants to identify antibodies that bind to the same site on Nectin-4. […] FIGS. 8A and 8B show different view of a molecular model of the human Nectin-4 protein, indicating the position of substituted residues in mutants 1, 2, 3, 4, 5, 6, 7, 8 and 9.
(§2) Nectin-4 mutants were generated by PCR. The sequences amplified were run on agarose gel and purified using the Macherey Nagel PCR Clean-Up Gel Extraction kit. The purified PCR products generated for each mutant were then ligated into an expression vector, with the ClonTech InFusion system. The vectors containing the mutated sequences were prepared as Miniprep and sequenced. After sequencing, the vectors containing the mutated sequences were prepared as Midiprep using the Promega PureYield™ Plasmid Midiprep System. HEK293T cells were grown in DMEM medium (Invitrogen), transfected with vectors using Invitrogen's Lipofectamine 2000 and incubated at 37° C. in a CO2 incubator for 48 hours prior to testing for transgene expression. The targeted amino acid mutations are shown in Table 13 below, listing the residue present in wild-type Nectin-4/position of residue/residue present in mutant Nectin-4, with position reference being to the Nectin-4 protein with leader peptide shown in SEQ ID NO: 1.
(§3) (+) means that antibodies-Nectin-4 association occurs.

[2] = test system: human Nectin-4 Mutant 5 (A158P/E160G/S243A/F244S); details: results irrelevant due to an absence of expression of said protein
From the text: as §1, §2, §3

[3] = biological target: T2, human Nectin-4 Mutant 2 (V90S/P92A/A93S/E95A/G96D) (Homo sapiens, UniProt Q96NY8, A93S/E95A/G96D/P92A/V90S)
T2 construct: expressed in transfected cells; host or cells: HEK293T
T2 sequence (Q96NY8 32-510 V90S/P92A/A93S/E95A/G96D): T1 sequence (Q96NY8 32-510 A72P/G73N/K197T/S199A) with P41A, N42G, V59S, P61A, A62S, E64A, G65D, T166K, A168S
From the text: as §1, §2, §3

[4] = biological target: T3, human Nectin-4 Mutant 7 (S195A/K197T/S199A) (Homo sapiens, UniProt Q96NY8, K197T/S195A/S199A)
T3 construct: expressed in transfected cells; host or cells: HEK293T
T3 sequence (Q96NY8 32-510 S195A/K197T/S199A): T1 sequence (Q96NY8 32-510 A72P/G73N/K197T/S199A) with P41A, N42G, S164A
From the text: as §1, §2, §3

| Molecule | association with Mutant 7bis [1] | association with Mutant 5 [2] | association with Mutant 2 [3] | association with Mutant 7 [4] |
| --- | --- | --- | --- | --- |
| B1 | + | − | + | + |
| B2 | − | − | + | − |
